Measurements reported in the supplement of paper PMC10567573.

B1: OAS1 (parent)
chain: TPAKSLDKFIEDYLLPDTCFRMQI

Variants of: B1
Assay: protein stability index of a GFP-peptide fusion (GPS, HEK-293T) (PSI 1-6); higher = more stable
Conditions: c terminus: a fixed tail appended
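Also: lentivirally expressed fusions sorted by FACS into six bins by GFP to DsRed ratio, PSI derived from sequencing read proportions per bin multiplied by bin number.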

Protein stability index: each site, then its substitutions
R21: A 3.28; K 2.46; D 1.56; Q 3.37; H 3.05; N 2.73; I 2.93; W 1.43; T 3.86; G 2.33; F 2.13; L 3.64; M 2.31; Y 2.44; P 1.31; V 3.2; S 3.4
I24: L 2.15; Q 1.67; R 2.43; G 1.55; W 2.39; A 1.74; K 1.99; Y 1.56; V 2; T 1.46; F 2.76; P 2.12; M 1.7; D 2.47; C 2.23; H 2.22; S 1.84; E 1.85; N 1.76
M22: I 3.42; Y 2.9; P 2.03; H 2.28; C 2.94; W 2.45; T 2.21; L 2.39; D 2.1; S 1.64; E 2.23; V 2.23; Q 1.5; N 1.99; A 1.93; K 1.98; G 2.51; F 1.35; R 1.94
C19: E 1.43; W 3.2; A 2.88; N 3.42; F 2.51; T 2.24; H 2.96; L 2.02; Q 2.3; K 1.59; I 4.78; G 2.44; D 1.62; V 3.28; R 3.1; Y 3.22; P 2.68
F20: S 2.28; Y 2.56; C 2.15; M 3.12; P 1.75; N 1.95; E 1.97; D 2.43; A 2.23; K 2.4; G 1.74; W 3.38; L 2.2; Q 1.58; R 2.8; I 3.6; V 2.97; H 1.47; T 2.21
Q23: Y 3.27; P 1.99; E 2.6; T 2.48; F 2.13; R 3.21; I 2.22; K 1.54; A 3.37; V 2.56; S 5.04; C 3.21; M 3.2; N 1.42; W 3.07; L 3.03; D 2.73; G 3.25; H 3.27
T18: Y 3.93; W 2.58; V 2.23
